The values that follow come from article PMC11045720, “Denaturing mass photometry for rapid optimization of chemical protein-protein cross-linking reactions” (Nature Communications, 2024).

This data set deals with the molecule itself. In words: cross-linking; formaldehyde 0.05% to 1% (vol/vol) on 1 mg/mL protein, 20 min at room temperature; read by denaturing mass photometry.

For orientation: stoichiometry N means the number of molecules, sites or subunits per partner or assembly.

B1: L-Glutamate dehydrogenase from bovine liver (enzyme)
chain: not shown
notes: L-Glutamate dehydrogenase from bovine liver (Sigma); also called GLDH; source: bought: Sigma (from bovine liver)
On to B1, for which the “stoichiometry N” value stood at 6.
